# Measurements taken from paper PMC10786891, “Massively parallel profiling of RNA-targeting CRISPR-Cas13d”.
# Changes are numbered by the printed parent chain. Names and notes keep the numbering of the source.
# T1: EsCas13d, nuclease-dead (Eubacterium siraeum, UniProt B0MS50, R295A;H300A;R849A;H854A)
# T1 sequence: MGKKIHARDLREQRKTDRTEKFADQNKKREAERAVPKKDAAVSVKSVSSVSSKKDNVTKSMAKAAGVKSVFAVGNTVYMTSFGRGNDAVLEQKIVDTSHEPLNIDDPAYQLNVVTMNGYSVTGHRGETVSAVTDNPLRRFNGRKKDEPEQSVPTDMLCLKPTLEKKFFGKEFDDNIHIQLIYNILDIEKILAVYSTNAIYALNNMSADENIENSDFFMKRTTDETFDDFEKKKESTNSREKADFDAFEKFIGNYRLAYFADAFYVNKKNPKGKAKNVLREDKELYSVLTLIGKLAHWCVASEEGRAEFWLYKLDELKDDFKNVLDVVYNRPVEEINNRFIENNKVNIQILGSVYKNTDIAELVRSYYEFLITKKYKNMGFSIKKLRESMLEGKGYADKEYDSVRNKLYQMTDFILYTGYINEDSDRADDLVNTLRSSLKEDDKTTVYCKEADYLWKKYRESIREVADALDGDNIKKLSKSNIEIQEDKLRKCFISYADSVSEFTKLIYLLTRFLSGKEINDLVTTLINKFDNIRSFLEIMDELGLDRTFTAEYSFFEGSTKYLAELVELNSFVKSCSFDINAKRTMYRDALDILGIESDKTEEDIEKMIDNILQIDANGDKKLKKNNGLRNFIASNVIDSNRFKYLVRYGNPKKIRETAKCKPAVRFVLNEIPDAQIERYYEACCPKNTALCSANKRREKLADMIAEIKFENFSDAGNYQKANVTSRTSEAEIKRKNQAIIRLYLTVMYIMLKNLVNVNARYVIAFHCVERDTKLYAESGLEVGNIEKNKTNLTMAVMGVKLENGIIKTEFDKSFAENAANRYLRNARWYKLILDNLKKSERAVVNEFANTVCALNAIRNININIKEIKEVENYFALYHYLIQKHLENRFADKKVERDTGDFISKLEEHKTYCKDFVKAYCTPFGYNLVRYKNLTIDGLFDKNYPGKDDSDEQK
# B1: target 1 U3C,U8C (mixed)
# RNA 1: CACCCGUGCAAAAAUGCAGGGGUCUAAAACUGAGCGGAUAACCUCUCUAUGG
# RNA 2: GGGAAUGGAUCCACAUCUACGAAUUCGUACCAUAGAGAGGUUACCCGCCCACCGAGAUCGGAAGAGCACACGU
# B2: target 1 insG 3' of 18,insA 3' of 3 (mixed)
# RNA 1: B1 RNA 1
# RNA 2: GGGAAUGGAUCCACAUCUACGAAUUCGUACCAUAGGAGAGGUUAUCCGCUACACCGAGAUCGGAAGAGCACACGU
# B3: target 1 insA 3' of 13,insA 3' of 10 (mixed)
# RNA 1: B1 RNA 1
# RNA 2: GGGAAUGGAUCCACAUCUACGAAUUCGUACCAUAGAGAGAGUUAAUCCGCUCACCGAGAUCGGAAGAGCACACGU
# B4: target 1 C2U,U8A (mixed)
# RNA 1: B1 RNA 1
# RNA 2: B1 RNA 2 with C44A, C49U, C50U
# B5: target 1 C7A,A16U (mixed)
# RNA 1: B1 RNA 1
# RNA 2: B1 RNA 2 with A36U, C44U, C45A, C49U
# B6: target 1 A9G,U11C (mixed)
# RNA 1: B1 RNA 1
# RNA 2: B1 RNA 2 with U41C, A43G, C44U, C49U
# B7: target 1 insU 3' of 21,insU 3' of 2 (mixed)
# RNA 1: B1 RNA 1
# RNA 2: B2 RNA 2 with A32U, U33A, A34U, G35A, A51C, C52U
# B8: target 1 G13U,A14C (mixed)
# RNA 1: B1 RNA 1
# RNA 2: B1 RNA 2 with A38C, G39U, C44U, C49U
# B9: target 1 A16G,G17A (mixed)
# RNA 1: B1 RNA 1
# RNA 2: B1 RNA 2 with G35A, A36G, C44U, C49U
# B10: target 1 insG 3' of 22,insG 3' of 3 (mixed)
# RNA 1: B1 RNA 1
# RNA 2: B2 RNA 2 with C31G, A32C, U33A, A34U, G35A, A51G
# B11: target 1 insG 3' of 14,insA 3' of 5 (mixed)
# RNA 1: B1 RNA 1
# RNA 2: B3 RNA 2 with A40G, A45U, U46C, C48G, G49A
# B12: target 1 G12C,A14G (mixed)
# RNA 1: B1 RNA 1
# RNA 2: B1 RNA 2 with A38G, G40C, C44U, C49U
# B13: target 1 del7,del11 (mixed)
# RNA 1: B1 RNA 1
# RNA 2: GGGAAUGGAUCCACAUCUACGAAUUCGUACCAUAGAGAGGUAUCGCUCACCGAGAUCGGAAGAGCACACGU
# B14: target 1 G17A,A18G (mixed)
# RNA 1: B1 RNA 1
# RNA 2: B1 RNA 2 with A34G, G35A, C44U, C49U
# B15: target 1 insC 3' of 22,insU 3' of 14 (mixed)
# RNA 1: B1 RNA 1
# RNA 2: GGGAAUGGAUCCACAUCUACGAAUUCGUACCCAUAGAGAUGGUUAUCCGCUCACCGAGAUCGGAAGAGCACACGU
# B16: target 1 G15U,C21U (mixed)
# RNA 1: B1 RNA 1
# RNA 2: B1 RNA 2 with C31U, G37U, C44U, C49U
# B17: target 1 C4A,A14C (mixed)
# RNA 1: B1 RNA 1
# RNA 2: B1 RNA 2 with A38C, C44U, C48A, C49U
# B18: target 1 insC 3' of 13,insC 3' of 9 (mixed)
# RNA 1: B1 RNA 1
# RNA 2: B3 RNA 2 with A40C, A45C
# B19: target 1 insA 3' of 7,insC 3' of 5 (mixed)
# RNA 1: B1 RNA 1
# RNA 2: B3 RNA 2 with A40G, G41U, U43A, A44U, A45C, U46A, C48G, G49C
# B20: target 1 insU 3' of 17,insA 3' of 8 (mixed)
# RNA 1: B1 RNA 1
# RNA 2: B2 RNA 2 with G36U, C46A, G48C, C49G, U50C, A51U
# B21: target 1 U10C,G12A (mixed)
# RNA 1: B1 RNA 1
# RNA 2: B1 RNA 2 with G40A, U42C, C44U, C49U
# B22: target 1 del3,del5 (mixed)
# RNA 1: B1 RNA 1
# RNA 2: B13 RNA 2 with A42U, U43A, C44U, G45C, U47C
# B23: target 1 insA 3' of 3,insU 3' of 2 (mixed)
# RNA 1: B1 RNA 1
# RNA 2: GGGAAUGGAUCCACAUCUACGAAUUCGUACCAUAGAGAGGUUAUCCGCUACUACCGAGAUCGGAAGAGCACACGU
# B24: target 1 insU 3' of 20 (mixed)
# RNA 1: B1 RNA 1
# RNA 2: GGGAAUGGAUCCACAUCUACGAAUUCGUACCAUUAGAGAGGUUAUCCGCUCACCGAGAUCGGAAGAGCACACGU
# B25: target 1 insU 3' of 14,insA 3' of 5 (mixed)
# RNA 1: B1 RNA 1
# RNA 2: B3 RNA 2 with G39U, A40G, A45U, U46C, C48G, G49A
# B26: target 1 insU 3' of 6,insU 3' of 1 (mixed)
# RNA 1: B1 RNA 1
# RNA 2: B23 RNA 2 with G47U, C48G, U49C, A50U, U52A, A53U
# B27: target 1 C4A,G5C (mixed)
# RNA 1: B1 RNA 1
# RNA 2: B1 RNA 2 with C44U, G47C, C48A, C49U
# B28: target 1 insC 3' of 12,insC 3' of 3 (mixed)
# RNA 1: B1 RNA 1
# RNA 2: B2 RNA 2 with G36A, A37G, G38A, A39G, G41C, A51C
# B29: target 1 insA 3' of 10,insC 3' of 9 (mixed)
# RNA 1: B1 RNA 1
# RNA 2: B3 RNA 2 with A40G, G41U, U43A, A45C
# B30: target 1 complement block 3-13 (mixed)
# RNA 1: B1 RNA 1
# RNA 2: GGGAAUGGAUCCACAUCUACGAAUUCGUACCAUAGAGACCAAUAGGCGACACCGAGAUCGGAAGAGCACACGU
# B31: target 1 G5A,C6G (mixed)
# RNA 1: B1 RNA 1
# RNA 2: B1 RNA 2 with C44U, C46G, G47A, C49U
# B32: target 1 C6U,A14C (mixed)
# RNA 1: B1 RNA 1
# RNA 2: B1 RNA 2 with A38C, C44U, C46U, C49U
# B33: target 1 insC 3' of 9,insG 3' of 7 (mixed)
# RNA 1: B1 RNA 1
# RNA 2: B23 RNA 2 with U44C, C45U, U49G, A50C, C51U, U52C
# Target: T1, EsCas13d, nuclease-dead
# Assay: crRNA (strand 1, pre-loaded); Mg2+; 40 mM Tris-HCl pH 7.5, 150 mM NaCl, 6 mM MgCl2, 1 mM DTT, 0.1% Tween-20, 0.2 mg/ml BSA; 25 C; 10 min per concentration, then washed
# Conditions: tags: His6-TwinStrep-SUMO cleaved; N-terminal SNAP kept (SNAP-Surface 488); label: 3' end held by stalled T7 RNA polymerase
row,Binder,Kd [nM]
1,B1,13.4 ± 0.6
2,B2,49.3 ± 3.1
3,B3,4.3 ± 0.5
4,B4,21.2 ± 1
5,B5,42.2 ± 2.5
6,B6,12.1 ± 0.5
7,B7,38 ± 4
8,B8,10.8 ± 0.7
9,B9,84 ± 30
10,B10,21.5 ± 2.1
11,B11,8.1 ± 0.4
12,B12,27.5 ± 3.1
13,B13,15.4 ± 0.5
14,B14,81 ± 22
15,B15,40 ± 10
16,B16,6.4 ± 0.5
17,B17,11.9 ± 1.3

row,Binder,Kd [nM]
1,B18,17.9 ± 1.1
2,B19,11.1 ± 0.5
3,B20,24.6 ± 1.5
4,B21,13.8 ± 0.6
5,B22,15.8 ± 0.9
6,B23,9 ± 0.6
7,B24,10.6 ± 0.6
8,B25,28.7 ± 3
9,B26,14.1 ± 1.4
10,B27,20.9 ± 1.7
11,B28,12.3 ± 2.6
12,B29,14.4 ± 0.5
13,B30,62 ± 7
14,B31,8 ± 0.4
15,B32,20 ± 1
16,B33,11.4 ± 0.7
